Test results published in the supplement of paper PMC10567573.

B1: ATL3 (parent)
chain: HFKKTKKMGGKDFSFRYQQELEEE
B2: ZNF24 (parent)
chain: YGETCFPKGRFERKRNPSRKKQHI

Variants of: B1
Assay: protein stability index of a GFP-peptide fusion (GPS, HEK-293T) (PSI 1-6); higher = more stable
Settings: c terminus: a fixed tail appended
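Further: lentivirally expressed fusions sorted by FACS into six bins by GFP to DsRed ratio, PSI derived from sequencing read proportions per bin multiplied by bin number.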

Row | Variant | protein stability index
1 | HFKKTKKMGCKDFSFRYQQELEEE | 1.56
2 | HFKKTKKMGMKDFSFRYQQELEEE | 2.71
3 | HFKKTMKMGGKDFSFRYQQELEEE | 2.51
4 | HGKKTKKMGGKDFSFRYQQELEEE | 1.4
5 | HLKKTKKMGGKDFSFRYQQELEEE | 1.39
6 | HNKKTKKMGGKDFSFRYQQELEEE | 2.28
7 | HFKKTKKMGGQDFSFRYQQELEEE | 2.24
8 | HFKKTKKMGGKDFSFRYQQELEET | 2.39
9 | HFKKTKKMGGKDFSFRYQQELEES | 2.85
10 | HFKKTKKMGGKDFSFRYQQTLEEE | 3.31
11 | HFKKTKKMGGKDFSFRYQQYLEEE | 3.14
12 | HFKKTKKMGGKDFSFRYQQMLEEE | 3.43
13 | HFKKTKKMGGKDFSFRYQQGLEEE | 3.11
14 | HFKKTKKMGGKDFSNRYQQELEEE | 1.66
15 | HFKKTKKMGGKDFSHRYQQELEEE | 2.71
16 | HFKKTKKMGGKDFSFAYQQELEEE | 2.98
17 | HFKKTKKMGGKEFSFRYQQELEEE | 2.34
18 | HFKKTKKMGGKRFSFRYQQELEEE | 1.96
19 | HFKKTKKMGGKVFSFRYQQELEEE | 2.7
20 | HFKKTKKRGGKDFSFRYQQELEEE | 2.81

Row | Variant | protein stability index
21 | HFKKTKKTGGKDFSFRYQQELEEE | 2.63
22 | HFKKTKKDGGKDFSFRYQQELEEE | 2.14
23 | HFNKTKKMGGKDFSFRYQQELEEE | 2.18
24 | HFKKTKQMGGKDFSFRYQQELEEE | 2.54
25 | HFKKTKHMGGKDFSFRYQQELEEE | 2.32
26 | HFKKTKCMGGKDFSFRYQQELEEE | 2.44
27 | HFKKTKKMGGKDFSFRYQRELEEE | 2.52
28 | HFKKTKKMRGKDFSFRYQQELEEE | 1.77
29 | HFKKTKKMVGKDFSFRYQQELEEE | 1.82
30 | HFKKTKKMNGKDFSFRYQQELEEE | 1.99
31 | HFKKTKKMGGKDYSFRYQQELEEE | 2.75
32 | HFKKTKKMGGKDTSFRYQQELEEE | 4.97
33 | HFKKTKKMGGKDKSFRYQQELEEE | 4.09
34 | HFKKTKKMGGKDFSFRVQQELEEE | 2.03
35 | HFKKTKKMGGKDFSFRQQQELEEE | 4.78
36 | HFKKTKKMGGKDFSFRYQQELTEE | 2.03
37 | HFKKTKKMGGKDFSFRYQQELHEE | 2.83
38 | HFKKTKKMGGKDFSFRYQQELSEE | 1.8
39 | HFKKTKKMGGKDFSFRYQQELEHE | 2.02
40 | HFKKTKKMGGKDFSFRYQQELEKE | 2.46

Variants of: B2
Assay: as above
Settings: c terminus: a fixed tail appended

Row | Variant | protein stability index
41 | YGETCFPKGRFERKRNPSVKKQHI | 2.89
42 | YGETCFPKGRFERKRNPSTKKQHI | 3.5
43 | YGETCFPKGRFERKRNPSPKKQHI | 3.28
44 | YGETCFPKGRFERKRNPSRKKQHL | 2.78
45 | YGETCFPKGRFERKRNPSRKKQHN | 3.54
46 | YGETCFPKGRFERKRNPSRKKQHE | 3.13
47 | YGETCFPKGRFERKRNPSRKKQHM | 2.57
48 | YGETCFPKGRFERKRNPSRKKQHS | 2.77
49 | YGETCFPKGRFERKRNPSRKKQHW | 2.3
50 | YGETCFPKGRFERKRNPSRKKQHH | 2.93
51 | YGETCFPKGRFERKRNPSRKKQHV | 3
52 | YGETCFPKGRFERKRNPSRKKQHD | 2.6
53 | YGETCFPKGRFERKRNPSRKKQHK | 3.22
54 | YGETCFPKGRFERKRNPSRKKQHT | 3.42
55 | YGETCFPKGRFERKRNPSRKKQHC | 2.9
56 | YGETCFPKGRFERKRNPSRKKQHP | 2.29
57 | YGETCFPKGRFERKRNPSRGKQHI | 3.29
58 | YGETCFPKGRFERKRNPSRLKQHI | 2.05
59 | YGETCFPKGRFERKRNPSRPKQHI | 2.49
60 | YGETCFPKGRFERKRNPSRNKQHI | 3.08
61 | YGETCHPKGRFERKRNPSRKKQHI | 4.08
62 | YGETCDPKGRFERKRNPSRKKQHI | 4.46
63 | YGETCAPKGRFERKRNPSRKKQHI | 3.64
64 | YGETCMPKGRFERKRNPSRKKQHI | 4.07
65 | YGETCGPKGRFERKRNPSRKKQHI | 3.8
66 | YGETCKPKGRFERKRNPSRKKQHI | 3.38
67 | YGETCFPKGRYERKRNPSRKKQHI | 3.32

Row | Variant | protein stability index
68 | YGETCFPKGRSERKRNPSRKKQHI | 3.18
69 | YGETCFPKGRCERKRNPSRKKQHI | 2.58
70 | YGETCFPKGRPERKRNPSRKKQHI | 2.97
71 | YGETCFPKKRFERKRNPSRKKQHI | 3.15
72 | YGETCFPKDRFERKRNPSRKKQHI | 2.71
73 | YGETCFPKHRFERKRNPSRKKQHI | 2.72
74 | YGETCFPKSRFERKRNPSRKKQHI | 3
75 | YGETCFPKERFERKRNPSRKKQHI | 3.39
76 | YGETCFPKQRFERKRNPSRKKQHI | 3.28
77 | YGETCFPKFRFERKRNPSRKKQHI | 2.29
78 | YGETCFPKGRFERKRNPSRKKYHI | 2.46
79 | YGETCFPKGRFERKRNPSRKKFHI | 2.23
80 | YGETCFPKGRFERKRNPSRKKLHI | 2.4
81 | YGETCFPKGRFERKRNPSRKKNHI | 2.94
82 | YGETCFPKGRFERKRNPSRKKHHI | 2.33
83 | YGETCFPKGRFERKRNPSRKKTHI | 2.67
84 | YGETCFPKGRFERKRNPSRKKWHI | 2.25
85 | YGETCFPKGRFERKRNPRRKKQHI | 2.82
86 | YGETCFPKGRFERKRNPFRKKQHI | 2.71
87 | YGETCFPKGRFERKRNPKRKKQHI | 3.1
88 | YGETCFPKGRFERKRNPVRKKQHI | 2.62
89 | YGETCFPKGRFERKRNPQRKKQHI | 3.03
90 | YGETCFPKGRFERKRNPERKKQHI | 3.63
91 | YGETCFPKGRFERKRNPWRKKQHI | 2.22
92 | TGETCFPKGRFERKRNPSRKKQHI | 3.6
93 | LGETCFPKGRFERKRNPSRKKQHI | 3.9
94 | WGETCFPKGRFERKRNPSRKKQHI | 2.6
